For 3 proteins, degradation_or_half_life and localisation_or_trafficking results are on record in article PMC11997252.

What all share (settings): glycan lost; control: Fzd4 WT
Series [1] can be described thus: cycloheximide chase, Western blot, HEK293T. For orientation: A western blot detects proteins with antibodies after separation by electrophoresis.
Series [2] is described as follows: plasma membrane fractionation, Western blot.
Series [3] can be described thus: SNAP-tag staining with membrane-impermeant dye.
A short description of series [4]: immunofluorescence co-localisation with ER marker CANX.
A short description of series [5]: surface biotinylation, streptavidin pull-down, HEK293T.

B1: Fzd4: N59/144Q (protein)
parent chain: MAWRGAGPSVPGAPGGVGLSLGLLLQLLLLLGPARGFGDEEERRCDPIRISMCQNLGYNVTKMPNLVGHELQTDAELQLTTFTPLIQYGCSSQLQFFLCSVYVPMCTEKINIPIGPCGGMCLSVKRRCEPVLKEFGFAWPESLNCSKFPPQNDHNHMCMEGPGDEEVPLPHKTPIQPGEECHSVGTNSDQYIWVKRSLNCVLKCGYDAGLYSRSAKEFTDIWMAVWASLCFISTAFTVLTFLIDSSRFSYPERPIIFLSMCYNIYSIAYIVRLTVGRERISCDFEEAAEPVLIQEGLKNTGCAIIFLLMYFFGMASSIWWVILTLTWFLAAGLKWGHEAIEMHSSYFHIAAWAIPAVKTIVILIMRLVDADELTGLCYVGNQNLDALTGFVVAPLFTYLVIGTLFIAAGLVALFKIRSNLQKDGTKTDKLERLMVKIGVFSVLYTVPATCVIACYFYEISNWALFRYSADDSNMAVEMLKIFMSLLVGITSGMWIWSAKTLHTWQKCSNRLVNSGKVKREKRGNGWVKPGKGSETVV
For the protein B1, the degradation_or_half_life result in series [1] is on record as “decreases”. Further, the localisation_or_trafficking result in series [2] is “abolishes”; in series [3] it was “abolishes”; in series [4] it was “changes”; in series [5] it was “abolishes”.

B2: Fzd4: N144Q (protein)
parent chain: B1 parent chain
Consider B2, for which the degradation_or_half_life entry in series [1] is listed as “decreases”. Besides, the localisation_or_trafficking entry in series [2], in series [3] and in series [5] was “abolishes” each time.

B3: Fzd4: N59Q (protein)
parent chain: B1 parent chain
In the case of B3, in series [1], the degradation_or_half_life result is listed as “decreases”. Moreover, the localisation_or_trafficking result in series [2], in series [3] and in series [5] was “abolishes” throughout.
